Assays:
Experiment in all cases: cryo-EM structure
[1] = molecular target: BG505 SOSIP MD39 (HIV (BG505 genotype, clade A))
[2] = molecular target: BG505 SOSIP.v5.2 N241/N289 (HIV (BG505 genotype, clade A))
[3] = molecular target: BG505 SOSIP.v5.2(7S) N241/N289 (HIV (BG505 genotype, clade A))

BG505 SOSIP MD39 (domain or fragment)
stoichiometry N [1]: 3

BG505 SOSIP.v5.2 N241/N289 (domain or fragment)
stoichiometry N [2]: 3

BG505 SOSIP.v5.2(7S) N241/N289 (domain or fragment)
stoichiometry N [3]: 3

From PMC8355326
